Measurements as given in patent US20250388666A1 (BRIGHAM AND WOMEN S HOSPITAL, published 2025).

T1: CEACAM1 (Sino Biological) (human, UniProt P13688 35-428, limits assumed)
T1 construct: may be the same as CEACAM1-HIS; also called hCEACAM1; biotinylated soluble CEACAM1
T1 sequence: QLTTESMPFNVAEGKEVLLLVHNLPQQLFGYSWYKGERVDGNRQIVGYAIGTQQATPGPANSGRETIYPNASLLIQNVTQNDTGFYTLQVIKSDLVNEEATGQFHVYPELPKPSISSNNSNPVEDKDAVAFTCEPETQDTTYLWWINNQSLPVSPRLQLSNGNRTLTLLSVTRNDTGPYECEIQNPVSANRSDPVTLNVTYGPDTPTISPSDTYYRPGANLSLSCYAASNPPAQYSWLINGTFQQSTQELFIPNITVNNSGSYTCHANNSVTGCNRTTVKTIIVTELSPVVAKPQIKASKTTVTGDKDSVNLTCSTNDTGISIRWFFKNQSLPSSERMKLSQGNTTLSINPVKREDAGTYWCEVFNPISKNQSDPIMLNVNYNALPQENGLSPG

T2: CEACAM1 on transfected HeLa cells (Homo sapiens (Human), UniProt P13688 35-526)
T2 construct: also called C1
T2 sequence: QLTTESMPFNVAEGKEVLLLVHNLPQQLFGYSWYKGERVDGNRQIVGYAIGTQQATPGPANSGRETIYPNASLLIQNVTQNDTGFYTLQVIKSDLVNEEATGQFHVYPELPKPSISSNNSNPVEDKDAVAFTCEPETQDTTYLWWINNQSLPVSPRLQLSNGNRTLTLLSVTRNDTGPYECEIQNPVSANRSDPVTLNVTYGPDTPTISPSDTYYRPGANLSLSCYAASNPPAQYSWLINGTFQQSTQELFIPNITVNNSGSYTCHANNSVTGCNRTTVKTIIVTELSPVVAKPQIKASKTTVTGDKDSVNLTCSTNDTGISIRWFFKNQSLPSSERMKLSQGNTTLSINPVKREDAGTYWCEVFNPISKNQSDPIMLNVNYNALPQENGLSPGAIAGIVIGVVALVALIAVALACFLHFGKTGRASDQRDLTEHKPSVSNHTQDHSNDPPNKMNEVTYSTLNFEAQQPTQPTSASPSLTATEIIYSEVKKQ

T3: CEACAM5 on transfected HeLa cells (UniProt P06731 35-685)
T3 construct: whole, on cells; also called C5
T3 sequence (looked up): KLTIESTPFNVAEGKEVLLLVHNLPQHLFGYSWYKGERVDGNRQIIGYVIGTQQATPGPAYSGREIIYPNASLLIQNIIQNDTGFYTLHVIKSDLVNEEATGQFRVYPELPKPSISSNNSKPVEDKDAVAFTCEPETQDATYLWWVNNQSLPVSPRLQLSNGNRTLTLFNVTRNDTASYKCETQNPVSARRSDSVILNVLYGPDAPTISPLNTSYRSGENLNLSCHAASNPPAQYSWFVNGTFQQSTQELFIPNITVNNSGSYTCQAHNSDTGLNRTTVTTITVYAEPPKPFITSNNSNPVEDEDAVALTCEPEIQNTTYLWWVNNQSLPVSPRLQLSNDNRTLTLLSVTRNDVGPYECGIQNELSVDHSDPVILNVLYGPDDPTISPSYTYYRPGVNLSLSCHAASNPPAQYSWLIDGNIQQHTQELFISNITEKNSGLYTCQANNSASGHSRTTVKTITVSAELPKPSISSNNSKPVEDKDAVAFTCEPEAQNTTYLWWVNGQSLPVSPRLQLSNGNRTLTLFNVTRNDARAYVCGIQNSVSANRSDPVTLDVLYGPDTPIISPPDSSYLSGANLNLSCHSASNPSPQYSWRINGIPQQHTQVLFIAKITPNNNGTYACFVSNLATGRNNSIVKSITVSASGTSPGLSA


Assays:
[1] = molecular target: T1, CEACAM1 (Sino Biological); test: SPR single-cycle
How it was run: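 Humanized affinity-matured IgGs from crude supernatants captured on Protein A to ~100 RU, with CEACAM1 analyte injected at 25–100 nM (three-point, two-fold) in HBS-P+ without regeneration. 200 s association per injection, 300 s single dissociation; reference-channel and blank subtracted.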

[2] = molecular target: T2, CEACAM1 on transfected HeLa cells; test: flow cytometry, transfected HeLa
Method: (§1) Binding selectivity of the selected antibody variants was assessed by flow cytometry using HeLa cells transfected with vectors expressing CEACAM1, CEACAM5, and CEACAM6, respectively. The resulting cells were used for flow cytometry experiments and were cultured at 37° C., 5.0% CO₂ in Dulbecco's modified Eagle's medium supplemented with 10% fetal bovine serum, penicillin (100 U/ml) and dihydrostreptomycin ([…]). Cell lines were stained with the indicated antibodies followed by fluorochrome-conjugated monoclonal antibody specific for the indicated antibody isotypes such as human IgG4 or mouse IgG1 together with viable dye (DAPI). Data were acquired with a Cytoflex flow cytometer ([…]) and analyzed with FlowJo software (TreeStar, V7.6.5 for Windows).

[3] = molecular target: T3, CEACAM5 on transfected HeLa cells; test: flow cytometry, transfected HeLa
Method: as §1

Kd [1] [nM] | fold better than Parent (KD) [1] [fold] | relative fluorescence intensity [2] | relative fluorescence intensity [3] | Binder
551 | 1 | 89.3 | 0 | VH2 N56Q/Vκ4 S27(f)A IgG (antibody, V domains shown, IgG4 S241P, kappa; also called Parent; Parent IgG) VH: EVQLLESGGGLVQPGGSLRLSCAASGFSFSDYYLYWVRQAPGKGLEWVATISVGGGQTSYADSVKGRFTISRDNSKNTLYLQMNSLRAEDTAMYYCTRGLYYGPAWFAYWGQGTLVTVSS VL: not shown
 |  | 84.2 | 0.42 | chimeric parental antibody VH0/Vκ0 (antibody, IgG4, V domains shown, IgG4 (S241P), kappa; also called Chimera; chimeric antibody) VH: EVQLVESGGGFVKPGGSLKLSCAASGFSFSDYYLYWVRQTPEKRLEWVATISVGGGNTSYPDSVKGRFTISRDNAKNNLYLQMSSLKSEDTAMYYCTRGLYYGPAWFAYWGQGTLVTVSA VL: not shown
